Values belong to the binder of their own block, whether it stands above or below them.
How the values were obtained:
Experiment in all cases: SPOT array
[1] = target: T1, Rvs167 SH3 (RV167_YEAST), P39743
T1 chain: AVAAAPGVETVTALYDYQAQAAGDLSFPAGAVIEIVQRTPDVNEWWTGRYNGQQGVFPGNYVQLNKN

[2] = target: Sho1 SH3 (SHO1_YEAST), P40073
[3] = target: T2, Yhr016c SH3 (YSC84_YEAST), P32793
T2 chain: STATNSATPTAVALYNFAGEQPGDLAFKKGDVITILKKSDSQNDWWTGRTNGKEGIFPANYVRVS

[4] = target: T3, Yfr024 SH3 (LSB3_YEAST), P43603
T3 chain: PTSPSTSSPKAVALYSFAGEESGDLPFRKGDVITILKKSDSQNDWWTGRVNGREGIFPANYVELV

[5] = target: T4, Boi2 SH3 (BOI2_YEAST), P39969
T4 chain: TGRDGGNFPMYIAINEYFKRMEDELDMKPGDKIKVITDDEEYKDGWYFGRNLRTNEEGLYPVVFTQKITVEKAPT

[6] = target: T5, Boi1 SH3 (BOI1_YEAST), P38041
T5 chain: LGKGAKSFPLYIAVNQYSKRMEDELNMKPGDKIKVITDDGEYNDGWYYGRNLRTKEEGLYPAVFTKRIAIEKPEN

[7] = target: T6, Myo5 SH3 (MYO5_YEAST), Q04439
T6 chain: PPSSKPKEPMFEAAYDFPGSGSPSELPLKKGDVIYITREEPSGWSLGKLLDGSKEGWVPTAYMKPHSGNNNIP

Sequence of Sho1 SH3 (SHO1_YEAST), P40073 (P40073 295-366): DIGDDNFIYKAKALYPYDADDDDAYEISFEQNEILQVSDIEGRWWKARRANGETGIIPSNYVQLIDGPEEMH

B1: YEL050C 18-31 (peptide)
chain: SLISKRNPSYPYGI
normalised SPOT signal, Boehringer light units (BLU); mean over the file's lines of this peptide [1]: 45.7
normalised SPOT signal, Boehringer light units (BLU); mean over the file's lines of this peptide [2]: 159
normalised SPOT signal, Boehringer light units (BLU); mean over the file's lines of this peptide [3]: 10.1
normalised SPOT signal, Boehringer light units (BLU); mean over the file's lines of this peptide [4]: 79.2
normalised SPOT signal, Boehringer light units (BLU); mean over the file's lines of this peptide [5]: 53.2
normalised SPOT signal, Boehringer light units (BLU); mean over the file's lines of this peptide [6]: 274
normalised SPOT signal, Boehringer light units (BLU); mean over the file's lines of this peptide [7]: 483

B3: YPL083C 302-315 (peptide)
chain: SNFKKRDPGLPDFQ
normalised SPOT signal, Boehringer light units (BLU); mean over the file's lines of this peptide [1]: 89.5
normalised SPOT signal, Boehringer light units (BLU); mean over the file's lines of this peptide [2]: 36.9
normalised SPOT signal, Boehringer light units (BLU); mean over the file's lines of this peptide [3]: 49.4
normalised SPOT signal, Boehringer light units (BLU); mean over the file's lines of this peptide [4]: 212
normalised SPOT signal, Boehringer light units (BLU); mean over the file's lines of this peptide [5]: 6.1
normalised SPOT signal, Boehringer light units (BLU); mean over the file's lines of this peptide [6]: 238
normalised SPOT signal, Boehringer light units (BLU); mean over the file's lines of this peptide [7]: 161

B4: YDL179W 224-237 (peptide)
chain: SLLAKYQPSLPLVE
normalised SPOT signal, Boehringer light units (BLU); mean over the file's lines of this peptide [1]: 68.6
normalised SPOT signal, Boehringer light units (BLU); mean over the file's lines of this peptide [2]: 58.4
normalised SPOT signal, Boehringer light units (BLU); mean over the file's lines of this peptide [3]: 46.8
normalised SPOT signal, Boehringer light units (BLU); mean over the file's lines of this peptide [4]: 57.4
normalised SPOT signal, Boehringer light units (BLU); mean over the file's lines of this peptide [5]: 76.8
normalised SPOT signal, Boehringer light units (BLU); mean over the file's lines of this peptide [6]: 44.7
normalised SPOT signal, Boehringer light units (BLU); mean over the file's lines of this peptide [7]: 162

B5: YDR239C 144-157 (peptide)
chain: SKIKRSRPPPPPMD
normalised SPOT signal, Boehringer light units (BLU); mean over the file's lines of this peptide [1]: 185
normalised SPOT signal, Boehringer light units (BLU); mean over the file's lines of this peptide [2]: 167
normalised SPOT signal, Boehringer light units (BLU); mean over the file's lines of this peptide [3]: 123
normalised SPOT signal, Boehringer light units (BLU); mean over the file's lines of this peptide [4]: 1450
normalised SPOT signal, Boehringer light units (BLU); mean over the file's lines of this peptide [5]: 35.1
normalised SPOT signal, Boehringer light units (BLU); mean over the file's lines of this peptide [6]: 1250
normalised SPOT signal, Boehringer light units (BLU); mean over the file's lines of this peptide [7]: 5410

B6: YDR345C 274-287 (peptide)
chain: SKVNKVAPDHPFIQ
normalised SPOT signal, Boehringer light units (BLU); mean over the file's lines of this peptide [1]: 12.9
normalised SPOT signal, Boehringer light units (BLU); mean over the file's lines of this peptide [2]: 0
normalised SPOT signal, Boehringer light units (BLU); mean over the file's lines of this peptide [3]: 7.1
normalised SPOT signal, Boehringer light units (BLU); mean over the file's lines of this peptide [4]: 13.5
normalised SPOT signal, Boehringer light units (BLU); mean over the file's lines of this peptide [5]: 9.5
normalised SPOT signal, Boehringer light units (BLU); mean over the file's lines of this peptide [6]: 122
normalised SPOT signal, Boehringer light units (BLU); mean over the file's lines of this peptide [7]: 72.1

B8: YLR328W 26-39 (peptide)
chain: SKIPKSIPIIPYVL
normalised SPOT signal, Boehringer light units (BLU); mean over the file's lines of this peptide [1]: 73.2
normalised SPOT signal, Boehringer light units (BLU); mean over the file's lines of this peptide [2]: 76.7
normalised SPOT signal, Boehringer light units (BLU); mean over the file's lines of this peptide [3]: 33.4
normalised SPOT signal, Boehringer light units (BLU); mean over the file's lines of this peptide [4]: 42.7
normalised SPOT signal, Boehringer light units (BLU); mean over the file's lines of this peptide [5]: 25.9
normalised SPOT signal, Boehringer light units (BLU); mean over the file's lines of this peptide [6]: 151
normalised SPOT signal, Boehringer light units (BLU); mean over the file's lines of this peptide [7]: 243

B9: YNL152W 155-168 (peptide)
chain: SMAMRPIPPLPTES
normalised SPOT signal, Boehringer light units (BLU); mean over the file's lines of this peptide [1]: 32500
normalised SPOT signal, Boehringer light units (BLU); mean over the file's lines of this peptide [2]: 242
normalised SPOT signal, Boehringer light units (BLU); mean over the file's lines of this peptide [3]: 46600
normalised SPOT signal, Boehringer light units (BLU); mean over the file's lines of this peptide [4]: 50600
normalised SPOT signal, Boehringer light units (BLU); mean over the file's lines of this peptide [5]: 49
normalised SPOT signal, Boehringer light units (BLU); mean over the file's lines of this peptide [6]: 37
normalised SPOT signal, Boehringer light units (BLU); mean over the file's lines of this peptide [7]: 1330

B12: YNR023W 296-309 (peptide)
chain: SILRKSSPEEPFMS
normalised SPOT signal, Boehringer light units (BLU); mean over the file's lines of this peptide [1]: 162
normalised SPOT signal, Boehringer light units (BLU); mean over the file's lines of this peptide [2]: 54.4
normalised SPOT signal, Boehringer light units (BLU); mean over the file's lines of this peptide [3]: 22.1
normalised SPOT signal, Boehringer light units (BLU); mean over the file's lines of this peptide [4]: 327
normalised SPOT signal, Boehringer light units (BLU); mean over the file's lines of this peptide [5]: 43
normalised SPOT signal, Boehringer light units (BLU); mean over the file's lines of this peptide [6]: 132
normalised SPOT signal, Boehringer light units (BLU); mean over the file's lines of this peptide [7]: 144

B13: YPL141C 758-771 (peptide)
chain: SMDSKRKPSPPSQR
normalised SPOT signal, Boehringer light units (BLU); mean over the file's lines of this peptide [1]: 371
normalised SPOT signal, Boehringer light units (BLU); mean over the file's lines of this peptide [2]: 89.1
normalised SPOT signal, Boehringer light units (BLU); mean over the file's lines of this peptide [3]: 171
normalised SPOT signal, Boehringer light units (BLU); mean over the file's lines of this peptide [4]: 824
normalised SPOT signal, Boehringer light units (BLU); mean over the file's lines of this peptide [5]: 110
normalised SPOT signal, Boehringer light units (BLU); mean over the file's lines of this peptide [6]: 1110
normalised SPOT signal, Boehringer light units (BLU); mean over the file's lines of this peptide [7]: 510

B16: YBR017C 618-631 (peptide)
chain: SLGERFMPMAPEVY
normalised SPOT signal, Boehringer light units (BLU); mean over the file's lines of this peptide [1]: 32.8
normalised SPOT signal, Boehringer light units (BLU); mean over the file's lines of this peptide [2]: 3.7
normalised SPOT signal, Boehringer light units (BLU); mean over the file's lines of this peptide [3]: 7.3
normalised SPOT signal, Boehringer light units (BLU); mean over the file's lines of this peptide [4]: 15.8
normalised SPOT signal, Boehringer light units (BLU); mean over the file's lines of this peptide [5]: 51.3
normalised SPOT signal, Boehringer light units (BLU); mean over the file's lines of this peptide [6]: 49.7
normalised SPOT signal, Boehringer light units (BLU); mean over the file's lines of this peptide [7]: 140

Second part, the binder after the results:

normalised SPOT signal, Boehringer light units (BLU); mean over the file's lines of this peptide [1]: 42.2
normalised SPOT signal, Boehringer light units (BLU); mean over the file's lines of this peptide [2]: 32.6
normalised SPOT signal, Boehringer light units (BLU); mean over the file's lines of this peptide [3]: 48.5
normalised SPOT signal, Boehringer light units (BLU); mean over the file's lines of this peptide [4]: 26.4
normalised SPOT signal, Boehringer light units (BLU); mean over the file's lines of this peptide [5]: 39.1
normalised SPOT signal, Boehringer light units (BLU); mean over the file's lines of this peptide [6]: 101
normalised SPOT signal, Boehringer light units (BLU); mean over the file's lines of this peptide [7]: 457
B2: YNL239W 287-300 (peptide)
chain: SKYAKLDPSTPVSL

normalised SPOT signal, Boehringer light units (BLU); mean over the file's lines of this peptide [1]: 163
normalised SPOT signal, Boehringer light units (BLU); mean over the file's lines of this peptide [2]: 31400
normalised SPOT signal, Boehringer light units (BLU); mean over the file's lines of this peptide [3]: 28.2
normalised SPOT signal, Boehringer light units (BLU); mean over the file's lines of this peptide [4]: 188
normalised SPOT signal, Boehringer light units (BLU); mean over the file's lines of this peptide [5]: 28.1
normalised SPOT signal, Boehringer light units (BLU); mean over the file's lines of this peptide [6]: 75.5
normalised SPOT signal, Boehringer light units (BLU); mean over the file's lines of this peptide [7]: 212
B7: YDL197C 461-474 (peptide)
chain: SLTLKTLPRVPTDS

normalised SPOT signal, Boehringer light units (BLU); mean over the file's lines of this peptide [1]: 41.8
normalised SPOT signal, Boehringer light units (BLU); mean over the file's lines of this peptide [2]: 33.4
normalised SPOT signal, Boehringer light units (BLU); mean over the file's lines of this peptide [3]: 8.7
normalised SPOT signal, Boehringer light units (BLU); mean over the file's lines of this peptide [4]: 1
normalised SPOT signal, Boehringer light units (BLU); mean over the file's lines of this peptide [5]: 25.6
normalised SPOT signal, Boehringer light units (BLU); mean over the file's lines of this peptide [6]: 170
normalised SPOT signal, Boehringer light units (BLU); mean over the file's lines of this peptide [7]: 85.4
B10: YNL224C 454-467 (peptide)
chain: SLIPKIEPAEPTYS

normalised SPOT signal, Boehringer light units (BLU); mean over the file's lines of this peptide [1]: 204
normalised SPOT signal, Boehringer light units (BLU); mean over the file's lines of this peptide [2]: 6310
normalised SPOT signal, Boehringer light units (BLU); mean over the file's lines of this peptide [3]: 114
normalised SPOT signal, Boehringer light units (BLU); mean over the file's lines of this peptide [4]: 1540
normalised SPOT signal, Boehringer light units (BLU); mean over the file's lines of this peptide [5]: 66.1
normalised SPOT signal, Boehringer light units (BLU); mean over the file's lines of this peptide [6]: 1730
normalised SPOT signal, Boehringer light units (BLU); mean over the file's lines of this peptide [7]: 822
B11: YER164W 1316-1329 (peptide)
chain: SKRMKALPKGPAAL

normalised SPOT signal, Boehringer light units (BLU); mean over the file's lines of this peptide [1]: 10200
normalised SPOT signal, Boehringer light units (BLU); mean over the file's lines of this peptide [2]: 4940
normalised SPOT signal, Boehringer light units (BLU); mean over the file's lines of this peptide [3]: 21900
normalised SPOT signal, Boehringer light units (BLU); mean over the file's lines of this peptide [4]: 39100
normalised SPOT signal, Boehringer light units (BLU); mean over the file's lines of this peptide [5]: 29.8
normalised SPOT signal, Boehringer light units (BLU); mean over the file's lines of this peptide [6]: 7830
normalised SPOT signal, Boehringer light units (BLU); mean over the file's lines of this peptide [7]: 5570
B14: YIR018W 25-38 (peptide)
chain: SKNWKLPPRLPHRA

normalised SPOT signal, Boehringer light units (BLU); mean over the file's lines of this peptide [1]: 232
normalised SPOT signal, Boehringer light units (BLU); mean over the file's lines of this peptide [2]: 25.7
normalised SPOT signal, Boehringer light units (BLU); mean over the file's lines of this peptide [3]: 14.1
normalised SPOT signal, Boehringer light units (BLU); mean over the file's lines of this peptide [4]: 161
normalised SPOT signal, Boehringer light units (BLU); mean over the file's lines of this peptide [5]: 67.9
normalised SPOT signal, Boehringer light units (BLU); mean over the file's lines of this peptide [6]: 60.2
normalised SPOT signal, Boehringer light units (BLU); mean over the file's lines of this peptide [7]: 215
B15: YPR128C 112-125 (peptide)
chain: SLKNRDGPITPSTI
